According to patent US20110229560A1 (published 2011):
Each block holds one binder with its values, some of them ahead of it.

Legend:
[1] = target: T1, HA-tagged NLRC5 (human NLRC5, full length) (human, UniProt Q86WI3 1-1866); experiment: co-IP (anti-HA beads) and Western blot (anti-Flag), transfected 293T cells
T1 construct: Expressed from pcDNA3.1 with an HA tag in transfected 293T cells; used in lysates for co-immunoprecipitation; General statements about NLRC5 in overexpression experiments are put on this molecule; also called HA-NLRC5

[2] = target: T2, endogenous mouse NLRC5 (RAW264.7 cells) (mouse, UniProt C3VPR6 1-1915, limits assumed); experiment: IP of RAW264.7 lysate with anti-mNLRC5, Western blot with anti-NEMO
T2 construct: Endogenous protein; also called mNLRC5; endogenous mNLRC5

[3] = target: T1, HA-tagged NLRC5 (human NLRC5, full …); experiment: co-IP (anti-Flag or anti-HA beads) and Western blot, FIG. 15

T1 sequence (Q86WI3 whole entry N907D): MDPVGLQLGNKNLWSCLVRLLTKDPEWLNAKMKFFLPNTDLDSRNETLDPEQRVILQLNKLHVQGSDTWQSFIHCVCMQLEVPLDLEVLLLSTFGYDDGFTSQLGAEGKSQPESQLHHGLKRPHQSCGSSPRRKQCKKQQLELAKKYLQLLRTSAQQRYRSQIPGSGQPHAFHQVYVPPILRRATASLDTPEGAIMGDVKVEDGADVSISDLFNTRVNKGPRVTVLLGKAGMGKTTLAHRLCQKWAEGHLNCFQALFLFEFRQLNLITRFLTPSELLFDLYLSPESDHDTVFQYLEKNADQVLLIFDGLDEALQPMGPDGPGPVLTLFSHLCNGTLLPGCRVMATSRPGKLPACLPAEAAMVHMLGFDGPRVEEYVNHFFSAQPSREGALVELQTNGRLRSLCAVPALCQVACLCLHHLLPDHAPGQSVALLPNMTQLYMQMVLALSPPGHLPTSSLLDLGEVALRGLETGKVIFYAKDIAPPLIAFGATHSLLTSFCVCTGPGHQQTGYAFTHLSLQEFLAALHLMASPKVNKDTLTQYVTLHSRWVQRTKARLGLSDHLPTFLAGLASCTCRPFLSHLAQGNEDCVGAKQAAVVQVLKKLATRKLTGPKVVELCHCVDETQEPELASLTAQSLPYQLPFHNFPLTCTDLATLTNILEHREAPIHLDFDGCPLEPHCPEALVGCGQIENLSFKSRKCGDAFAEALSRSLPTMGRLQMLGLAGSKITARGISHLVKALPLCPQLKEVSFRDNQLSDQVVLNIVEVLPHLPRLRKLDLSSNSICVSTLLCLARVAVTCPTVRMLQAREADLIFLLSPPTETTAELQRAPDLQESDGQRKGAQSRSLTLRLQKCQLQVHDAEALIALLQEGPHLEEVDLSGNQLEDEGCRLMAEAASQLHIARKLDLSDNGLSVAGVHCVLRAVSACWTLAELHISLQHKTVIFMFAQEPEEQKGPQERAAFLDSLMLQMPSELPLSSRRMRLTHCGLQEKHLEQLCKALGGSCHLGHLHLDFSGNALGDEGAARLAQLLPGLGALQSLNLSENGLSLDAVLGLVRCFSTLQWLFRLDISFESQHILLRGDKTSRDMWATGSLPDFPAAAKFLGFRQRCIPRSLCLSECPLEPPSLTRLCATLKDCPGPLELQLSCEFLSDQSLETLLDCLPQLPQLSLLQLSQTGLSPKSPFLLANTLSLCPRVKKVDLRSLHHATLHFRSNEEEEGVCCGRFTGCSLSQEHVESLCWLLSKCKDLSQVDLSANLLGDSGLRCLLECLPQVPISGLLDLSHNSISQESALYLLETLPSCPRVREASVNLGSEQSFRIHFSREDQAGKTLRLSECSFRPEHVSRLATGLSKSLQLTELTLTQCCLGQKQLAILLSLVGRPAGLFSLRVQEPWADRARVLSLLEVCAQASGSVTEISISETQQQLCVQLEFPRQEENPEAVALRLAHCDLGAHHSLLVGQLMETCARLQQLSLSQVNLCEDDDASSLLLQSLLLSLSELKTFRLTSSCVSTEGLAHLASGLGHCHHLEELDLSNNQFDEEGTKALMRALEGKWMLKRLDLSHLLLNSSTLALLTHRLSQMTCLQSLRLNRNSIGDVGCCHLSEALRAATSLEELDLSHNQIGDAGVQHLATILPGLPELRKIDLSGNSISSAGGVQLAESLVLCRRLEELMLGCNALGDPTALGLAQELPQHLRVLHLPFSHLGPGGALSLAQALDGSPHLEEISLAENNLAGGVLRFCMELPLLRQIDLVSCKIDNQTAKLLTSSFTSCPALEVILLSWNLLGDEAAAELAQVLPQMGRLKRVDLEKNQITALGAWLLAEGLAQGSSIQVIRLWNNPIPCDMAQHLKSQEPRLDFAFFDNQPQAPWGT
T2 sequence (C3VPR6 whole entry G881R): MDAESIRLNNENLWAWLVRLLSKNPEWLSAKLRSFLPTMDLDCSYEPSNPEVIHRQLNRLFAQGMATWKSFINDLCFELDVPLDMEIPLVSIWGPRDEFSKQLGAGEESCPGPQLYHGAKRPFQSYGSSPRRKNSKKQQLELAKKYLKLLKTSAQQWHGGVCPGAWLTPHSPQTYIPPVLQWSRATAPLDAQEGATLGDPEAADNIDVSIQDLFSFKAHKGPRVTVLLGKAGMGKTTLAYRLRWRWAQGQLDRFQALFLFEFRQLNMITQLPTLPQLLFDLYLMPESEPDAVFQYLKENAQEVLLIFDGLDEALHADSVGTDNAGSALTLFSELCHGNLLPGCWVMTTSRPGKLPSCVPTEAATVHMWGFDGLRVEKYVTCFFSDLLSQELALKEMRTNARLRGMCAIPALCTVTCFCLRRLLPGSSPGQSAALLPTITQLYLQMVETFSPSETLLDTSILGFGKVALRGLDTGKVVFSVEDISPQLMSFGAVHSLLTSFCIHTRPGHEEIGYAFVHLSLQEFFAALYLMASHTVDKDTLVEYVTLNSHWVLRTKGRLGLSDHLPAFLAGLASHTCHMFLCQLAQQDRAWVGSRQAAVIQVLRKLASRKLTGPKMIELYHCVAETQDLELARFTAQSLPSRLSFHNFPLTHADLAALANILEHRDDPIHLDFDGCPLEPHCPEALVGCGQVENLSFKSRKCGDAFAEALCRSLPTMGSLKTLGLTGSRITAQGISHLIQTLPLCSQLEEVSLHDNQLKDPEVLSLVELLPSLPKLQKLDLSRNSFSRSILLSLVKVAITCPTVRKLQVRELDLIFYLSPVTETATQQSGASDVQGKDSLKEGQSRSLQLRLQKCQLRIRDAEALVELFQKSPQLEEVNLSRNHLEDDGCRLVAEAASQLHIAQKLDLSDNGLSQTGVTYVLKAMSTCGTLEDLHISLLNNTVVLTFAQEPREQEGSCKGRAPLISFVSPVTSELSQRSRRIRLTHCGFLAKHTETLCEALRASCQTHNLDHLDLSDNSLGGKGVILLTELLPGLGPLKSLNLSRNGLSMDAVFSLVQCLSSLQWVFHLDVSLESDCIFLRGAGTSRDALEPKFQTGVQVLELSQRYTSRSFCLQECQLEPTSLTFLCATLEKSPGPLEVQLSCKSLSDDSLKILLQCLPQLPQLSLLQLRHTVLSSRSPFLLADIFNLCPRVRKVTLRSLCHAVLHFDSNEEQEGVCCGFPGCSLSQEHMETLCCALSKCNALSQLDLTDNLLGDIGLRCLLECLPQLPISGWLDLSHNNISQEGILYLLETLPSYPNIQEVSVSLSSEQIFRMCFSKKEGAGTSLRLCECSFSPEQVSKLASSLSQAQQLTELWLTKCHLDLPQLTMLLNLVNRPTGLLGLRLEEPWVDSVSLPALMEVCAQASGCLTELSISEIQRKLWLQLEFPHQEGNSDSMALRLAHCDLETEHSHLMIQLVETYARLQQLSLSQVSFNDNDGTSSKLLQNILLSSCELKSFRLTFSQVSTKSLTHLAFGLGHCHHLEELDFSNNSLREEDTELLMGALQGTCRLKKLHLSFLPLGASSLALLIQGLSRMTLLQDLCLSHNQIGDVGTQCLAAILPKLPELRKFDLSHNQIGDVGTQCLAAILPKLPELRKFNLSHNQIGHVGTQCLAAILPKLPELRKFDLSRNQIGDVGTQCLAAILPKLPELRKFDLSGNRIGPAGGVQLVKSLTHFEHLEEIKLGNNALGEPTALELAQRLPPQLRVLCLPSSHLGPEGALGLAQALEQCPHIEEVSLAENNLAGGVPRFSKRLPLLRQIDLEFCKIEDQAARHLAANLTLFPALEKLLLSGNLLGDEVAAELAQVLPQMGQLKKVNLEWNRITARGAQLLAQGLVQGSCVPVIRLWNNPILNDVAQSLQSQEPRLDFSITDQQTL

binding result [1]: no binding
B1: Flag-MAVS (other, UniProt Q7Z434 1-540, looked up, not shown: small tags and cut ends)
chain: MPFAEDKTYKYICRNFSNFCNVDVVEILPYLPCLTARDQDRLRATCTLSGNRDTLWHLFNTLQRRPGWVEYFIAALRGCELVDLADEVASVYQSYQPRTSDRPPDPLEPPSLPAERPGPPTPAAAHSIPYNSCREKEPSYPMPVQETQAPESPGENSEQALQTLSPRAIPRNPDGGPLESSSDLAALSPLTSSGHQEQDTELGSTHTAGATSSLTPSRGPVSPSVSFQPLARSTPRASRLPGPTGSVVSTGTSFSSSSPGLASAGAAEGKQGAESDQAEPIICSSGAEAPANSLPSKVPTTLMPVNTVALKVPANPASVSTVPSKLPTSSKPPGAVPSNALTNPAPSKLPINSTRAGMVPSKVPTSMVLTKVSASTVPTDGSSRNEETPAAPTPAGATGGSSAWLDSSSENRGLGSELSKPGVLASQVDSPFSGCFEDLAISASTSLGMGPCHGPEENEYKSEGTFGIHVAENPSIQLLEGNPGPPADPDGGPRPQADRKFQEREVPCHRPSPGALWLQVAVTGVLVVTLLVVLYRRRLH

binding result [2]: no binding
B2: endogenous NEMO (RAW264.7 cells) (other, mouse, UniProt O88522 1-412, looked up)
chain: MNKHPWKNQLSEMVQPSGGPAEDQDMLGEESSLGKPAMLHLPSEQGTPETLQRCLEENQELRDAIRQSNQMLRERCEELLHFQVSQREEKEFLMCKFQEARKLVERLSLEKLDLRSQREQALKELEQLKKCQQQMAEDKASVKAQVTSLLGELQESQSRLEAATKDRQALEGRIRAVSEQVRQLESEREVLQQQHSVQVDQLRMQNQSVEAALRMERQAASEEKRKLAQLQAAYHQLFQDYDSHIKSSKGMQLEDLRQQLQQAEEALVAKQELIDKLKEEAEQHKIVMETVPVLKAQADIYKADFQAERHAREKLVEKKEYLQEQLEQLQREFNKLKVGCHESARIEDMRKRHVETPQPPLLPAPAHHSFHLALSNQRRSPPEEPPDFCCPKCQYQAPDMDTLQIHVMECIE

binding result [3]: no binding
B3: TBK1 (expressed in 293T cells) (enzyme, UniProt Q9UHD2 1-729, looked up, not shown: small tags and cut ends)
chain: MQSTSNHLWLLSDILGQGATANVFRGRHKKTGDLFAIKVFNNISFLRPVDVQMREFEVLKKLNHKNIVKLFAIEEETTTRHKVLIMEFCPCGSLYTVLEEPSNAYGLPESEFLIVLRDVVGGMNHLRENGIVHRDIKPGNIMRVIGEDGQSVYKLTDFGAARELEDDEQFVSLYGTEEYLHPDMYERAVLRKDHQKKYGATVDLWSIGVTFYHAATGSLPFRPFEGPRRNKEVMYKIITGKPSGAISGVQKAENGPIDWSGDMPVSCSLSRGLQVLLTPVLANILEADQEKCWGFDQFFAETSDILHRMVIHVFSLQQMTAHKIYIHSYNTATIFHELVYKQTKIISSNQELIYEGRRLVLEPGRLAQHFPKTTEENPIFVVSREPLNTIGLIYEKISLPKVHPRYDLDGDASMAKAITGVVCYACRIASTLLLYQELMRKGIRWLIELIKDDYNETVHKKTEVVITLDFCIRNIEKTVKVYEKLMKINLEAAELGEISDIHTKLLRLSSSQGTIETSLQDIDSRLSPGGSLADAWAHQEGTHPKDRNVEKLQVLLNCMTEIYYQFKKDKAERRLAYNEEQIHKFDKQKLYYHATKAMTHFTDECVKKYEAFLNKSEEWIRKMLHLRKQLLSLTNQCFDIEEEVSKYQEYTNELQETLPQKMFTASSGIKHTMTPIYPSSNTLVEMTLGMKKLKEEMEGVVKELAENNHILERFGSLTMDGGLRNVDCL

binding result [3]: no binding
B4: TRAF3 (expressed in 293T cells) (other, UniProt Q13114 1-568, looked up, not shown: small tags and cut ends)
chain: MESSKKMDSPGALQTNPPLKLHTDRSAGTPVFVPEQGGYKEKFVKTVEDKYKCEKCHLVLCSPKQTECGHRFCESCMAALLSSSSPKCTACQESIVKDKVFKDNCCKREILALQIYCRNESRGCAEQLMLGHLLVHLKNDCHFEELPCVRPDCKEKVLRKDLRDHVEKACKYREATCSHCKSQVPMIALQKHEDTDCPCVVVSCPHKCSVQTLLRSELSAHLSECVNAPSTCSFKRYGCVFQGTNQQIKAHEASSAVQHVNLLKEWSNSLEKKVSLLQNESVEKNKSIQSLHNQICSFEIEIERQKEMLRNNESKILHLQRVIDSQAEKLKELDKEIRPFRQNWEEADSMKSSVESLQNRVTELESVDKSAGQVARNTGLLESQLSRHDQMLSVHDIRLADMDLRFQVLETASYNGVLIWKIRDYKRRKQEAVMGKTLSLYSQPFYTGYFGYKMCARVYLNGDGMGKGTHLSLFFVIMRGEYDALLPWPFKQKVTLMLMDQGSSRRHLGDAFKPDPNSSSFKKPTGEMNIASGCPVFVAQTVLENGTYIKDDTIFIKVIVDTSDLPDP

binding result [3]: no binding
B5: IRF3 (expressed in 293T cells) (other, UniProt Q14653 1-427, looked up, not shown: small tags and cut ends)
chain: MGTPKPRILPWLVSQLDLGQLEGVAWVNKSRTRFRIPWKHGLRQDAQQEDFGIFQAWAEATGAYVPGRDKPDLPTWKRNFRSALNRKEGLRLAEDRSKDPHDPHKIYEFVNSGVGDFSQPDTSPDTNGGGSTSDTQEDILDELLGNMVLAPLPDPGPPSLAVAPEPCPQPLRSPSLDNPTPFPNLGPSENPLKRLLVPGEEWEFEVTAFYRGRQVFQQTISCPEGLRLVGSEVGDRTLPGWPVTLPDPGMSLTDRGVMSYVRHVLSCLGGGLALWRAGQWLWAQRLGHCHTYWAVSEELLPNSGHGPDGEVPKDKEGGVFDLGPFIVDLITFTEGSGRSPRYALWFCVGESWPQDQPWTKRLVMVKVVPTCLRALVEMARVGGASSLENTVDLHISNSHPLSLTSDQYKAYLQDLVEGMDFQGPGES

binding result [1]: no binding
B6: IKKi (expressed in 293T cells, detected with anti-Flag) (enzyme, UniProt Q14164 1-716, looked up, not shown: small tags and cut ends)
chain: MQSTANYLWHTDDLLGQGATASVYKARNKKSGELVAVKVFNTTSYLRPREVQVREFEVLRKLNHQNIVKLFAVEETGGSRQKVLVMEYCSSGSLLSVLESPENAFGLPEDEFLVVLRCVVAGMNHLRENGIVHRDIKPGNIMRLVGEEGQSIYKLTDFGAARELDDDEKFVSVYGTEEYLHPDMYERAVLRKPQQKAFGVTVDLWSIGVTLYHAATGSLPFIPFGGPRRNKEIMYRITTEKPAGAIAGAQRRENGPLEWSYTLPITCQLSLGLQSQLVPILANILEVEQAKCWGFDQFFAETSDILQRVVVHVFSLSQAVLHHIYIHAHNTIAIFQEAVHKQTSVAPRHQEYLFEGHLCVLEPSVSAQHIAHTTASSPLTLFSTAIPKGLAFRDPALDVPKFVPKVDLQADYNTAKGVLGAGYQALRLARALLDGQELMFRGLHWVMEVLQATCRRTLEVARTSLLYLSSSLGTERFSSVAGTPEIQELKAAAELRSRLRTLAEVLSRCSQNITETQESLSSLNRELVKSRDQVHEDRSIQQIQCCLDKMNFIYKQFKKSRMRPGLGYNEEQIHKLDKVNFSHLAKRLLQVFQEECVQKYQASLVTHGKRMRVVHETRNHLRLVGCSVAACNTEAQGVQESLSKLLEELSHQLLQDRAKGAQASPPPIAPYPSPTRKDLLLHMQELCEGMKLLASDLLDNNRIIERLNRVPAPPDV
